Data: article PMC10154332, “Mirror proteorhodopsins” (Communications Chemistry, 2023)

Experiments:
[1] = biological target: T1, SpaR (Sphingomonas paucimobilis rhodopsin) (Sphingomonas paucimobilis, UniProt A0A411LJN5); experiment: X-ray crystallography, in meso crystals, […] A; format: binding; settings: covalent Schiff base to K211; crystals at pH 5.2
T1 construct: gene HKX06_19670; E. coli C41(DE3) codon-optimised gene in pET32b (NdeI/XhoI), C-terminal His tag, DDM-solubilised, Ni-NTA and SEC; trimer
T1 sequence (A0A411LJN5 1-237): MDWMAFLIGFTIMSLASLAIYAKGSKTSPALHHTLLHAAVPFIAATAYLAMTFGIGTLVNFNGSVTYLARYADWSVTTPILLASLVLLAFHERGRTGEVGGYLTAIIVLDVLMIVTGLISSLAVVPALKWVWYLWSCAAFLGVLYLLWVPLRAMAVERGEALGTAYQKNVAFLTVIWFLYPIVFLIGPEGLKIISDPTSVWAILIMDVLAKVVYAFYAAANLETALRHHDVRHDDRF

[2] = biological target: Sphingomonas paucimobilis rhodopsin (SpaR) (Sphingomonas paucimobilis); experiment: crystal structure; in meso (monoolein) crystals, 0.78 M NaH2PO4/K2HPO4 pH 5.2, 22 °C; space group C2; 2.8 Å
[3] = biological target: Sphingomonas paucimobilis rhodopsin (SpaR) (Sphingomonas paucimobilis); experiment: SEC; DDM-solubilized SpaR at five pH values (4.4, 5.4, 6.4, 7.4, 8.4); at pH 4.4 only a single trimer peak, further peaks of higher molecular weight with increasing pH
[4] = biological target: Sphingomonas paucimobilis rhodopsin (SpaR) (Sphingomonas paucimobilis); experiment: SAXS; solubilized SpaR ~5 mg/ml in 100 mM NaCl, 0.5 mM EDTA, 0.01% NaN3, 20 mM TRIS(HCl) pH 7.2, 0.05% DDM; profile 0.04-0.26 1/A fitted with MEMPROT (detergent corona), trimer against monomer model
[5] = biological target: Asp73 (position 73, …); experiment: UV-vis; settings: 150 mM NaCl, 50 mM MES, Dark (ground) state, DDM-solubilised
[6] = biological target: Asp97 (UniProt position 97, …); settings: cited from earlier work

## CC1=C(/C=C/C(C)=C/C=C/C(C)=C/C=O)C(C)(C)CCC1 [retinal]
[1]
  X-ray crystallography, in meso crystals, 2.8 A: the retinal co-factor is covalently bound to the K211 residue of the helix G

## Sphingomonas paucimobilis rhodopsin (SpaR) (natural protein)
[2]
  stoichiometry N: 3
[3]
  stoichiometry N: 3
[4]
  stoichiometry N: 3

B1: SpaR (Sphingomonas paucimobilis rhodopsin, mirror proteorhodopsin) (Sphingomonas paucimobilis) (protein)
chain: T1 sequence (A0A411LJN5 1-237)
[5]; 5 mM ZnCl2, in the presence of 5 mM Zn2+
  pKa: 0.98±0.01
[5]; no Zn2+
  pKa: 1.03±0.01

B2: Green proteorhodopsin (PR) (uncultured marine gamma proteobacterium (printed as 'Gamma-proteobacterium')) (protein)
chain: MKLLLILGSVIALPTFAAGGGDLDASDYTGVSFWLVTAALLASTVFFFVERDRVSAKWKTSLTVSGLVTGIAFWHYMYMRGVWIETGDSPTVFRYIDWLLTVPLLICEFYLILAAATNVAGSLFKKLLVGSLVMLVFGYMGEAGIMAAWPAFIIGCLAWVYMIYELWAGEGKSACNTASPAVQSAYNTMMYIIIFGWAIYPVGYFTGYLMGDGGSALNLNLIYNLADFVNKILFGLIIWNVAVKESSNA
[6]
  pKa: 7.68
